Assay results published in article PMC7547737.

Columns and labels:
[1] = target: FLAG-AKT^T308A (UniProt P31749); assay: co-IP; SK-Br3 cells transfected with FLAG-tagged AKT constructs, starved with U0126, treated with TZ 20 min, cross-linked with DSP; anti-FLAG magnetic beads, 3 h at 4 °C; Western blot, amounts normalised on precipitated protein and input
[2] = target: FLAG-AKT^T308D (UniProt P31749); assay: as above

percent co-precipitated against wt AKT [1]: 60% | percent co-precipitated against wt AKT [2]: 60%
Substance: Ser/Thr-protein phosphatase 2A (PP2A)-catalytic subunit beta isoform (from UniProt P62714 1-309) (enzyme)
